Results reported in publication PMC7820290 (Nature Communications, 2020).

Legend:
Test in all cases: […]; 5 mM HEPES pH 7.5, 80 mM KCl, 20 °C; […]
Conditions in all cases: both partners purified
[1] = target: T1, SARS-CoV-2 N protein residues 1–364 (SARS-CoV-2, UniProt P0DTC9 1-364)
T1 construct: also called N^1–364

[2] = target: T2, SARS-CoV-2 N protein residues 49–419 (SARS-CoV-2, UniProt P0DTC9 49-419)
T2 construct: also called N^49–419

[3] = target: T3, SARS-CoV-2 N protein residues 49–364 (SARS-CoV-2, UniProt P0DTC9 49-364)
T3 construct: also called N^49–364

Measured: binding result

B1: soluble C-terminal domain of SARS-CoV-2 membrane (M) protein (aa 104–222 of 222) fused to GFP (domain or fragment)
chain: ARTRSMWSFNPETNILLNVPLHGTILTRPLLESELVIGAVILRGHLRIAGHHLGRCDIKDLPKEITVATSRTLSYYKLGASQRVAGDSGFAAYSRYRIGNYKLNTDHSSSSDNIALLVQ
notes: also called GFP-M^104–222
binds: [1] | [2] | [3]
